{"source": "patent US20220241413A1", "about": "“COMBINATION THERAPIES USING CD-38 ANTIBODIES” (Takeda Pharmaceutical Company Limited, priority 2019, published 2022)", "key": {"[1]": {"assay": "AB79-1002 phase 1b study, AB79 with LenDex or VRd in NDMM: safety", "format": "in vivo", "excerpt": "This is a Phase 1b, open-label, multicenter study to evaluate the safety, efficacy, tolerability, and pharmacokinetics (PK) of AB79 when added to 1 of 2 standard backbone regimens (lenalidomide plus dexamethasone [LenDex] or bortezomib [Velcade] plus lenalidomide and dexamethasone [VRd]) in adult patients with newly diagnosed multiple myeloma (NDMM) for whom stem cell transplantation (SCT) is not planned as initial therapy. The dose and schedule for the backbone regimens (LenDex and VRd) are given in accordance with product labeling or standard medical practice. Treatment cycles are 28 days until disease progression (PD) or unacceptable toxicity occurs. Treatment may be discontinued for other reasons listed below. AB79 is supplied by the sponsor. Bortezomib, dexamethasone, and lenalidomide are standard-of-care agents that are supplied from commercial sources.\n300 mg of AB79 is administered subcutaneously once weekly for 8 weeks (8 doses), once every 2 weeks for 16 weeks (8 doses), and once every 4 weeks thereafter until PD (in combination with backbone therapy). Backbone therapies (LenDex or VRd) are dosed in accordance with product labeling/local institutional practices. VRd is given with bortezomib weekly×3 weeks and LenDex in a standard 28 day cycle. Patients are evaluated from first dose of AB79 until 30 days after PD or until protocol-defined treatment discontinuation criteria are met.\nChanges in clinical laboratory parameters (standard hematology and chemistry), vital sign, electrocardiogram (ECG) monitoring, and Eastern Cooperative Oncology Group (ECOG) performance status that are judged by the investigator as clinically significant are recorded both on the source documentation and in the electronic case report (eCRF) as an AE. Toxicities that occur during the DLT evaluation period are used for the purposes of defining DLT and for subsequent cohort expansion or dose modification decisions. DLTs are based on AB79-related toxicities.\nThe study was designed to determine the recommended phase 2 dose (RP2D) and to provide a preliminary assessment of the AB79 combinations against NDMM. Parameters such as safety, tolerability, pharmacokinetics (PK), pharmacodynamics (PD), and disease response were assessed."}, "[2]": {"assay": "AB79-1501 study, AB79 monotherapy SC in RRMM: safety", "format": "in vivo", "excerpt": "Patients eligible for study enrollment are refractory or intolerant to at least one PI and at least one IMiD, and have received either ≥3 prior therapies or ≥2 prior therapies, if one of those therapies included a combination of a PI and an IMiD. In the phase 1b dose-escalation part of the study, patients who were previously exposed to an anti-CD38 agent are eligible; however, this criterion is not required. In the phase 2a expansion part of the study, patients were also refractory to at least one anti-CD38 monoclonal therapy at any time during prior treatment. The study was designed to evaluate the safety and tolerability of subcutaneously administered AB79 monotherapy in patients with RRMM, to determine the recommended phase 2 dose (RP2D), and to provide a preliminary assessment of its single-agent activity against RRMM, including in patients who are refractory to daratumumab. Parameters such as safety, tolerability, pharmacokinetics (PK), pharmacodynamics, and disease response were assessed.\nClinical safety data includes that from patients who received a single dose and from patients who received multiple doses in multiple cycles followed by treatment-free periods. Based on the mechanism of action (MOA) of AB79 and the subcutaneous (SC) route of administration, potential adverse events (AEs) included systemic reaction (e.g., cytokine release syndrome (CRS) and hypersensitivity reaction), hematologic effects (e.g., reduced platelet, lymphocyte, neutrophil, and RBC counts), infections (e.g., bacterial and/or viral infections secondary to immune suppression), and injection site reaction (i.e., erythema or tenderness)."}, "[3]": {"details": "AB79 300 or 600 mg with LenDex or VRd, 10 patients enrolled"}, "[4]": {"details": "monotherapy SC, total population, 45-600 mg"}}}
{"substance": "AB79: anti-CD38 monoclonal IgG1 antibody; heavy chain SEQ ID NO:11, light chain SEQ ID NO:12", "values": [{"measurement": "TEAE regardless of causality: abdominal pain", "setting": "[1]; [3]", "value": 2, "unit": "patients"}, {"measurement": "TEAE regardless of causality: chills", "setting": "[1]; [3]", "value": 2, "unit": "patients"}, {"measurement": "TEAE regardless of causality: decreased lymphocyte count", "setting": "[1]; [3]", "value": 5, "unit": "patients"}, {"measurement": "TEAE regardless of causality: diarrhea", "setting": "[1]; [3]", "value": 3, "unit": "patients"}, {"measurement": "TEAE regardless of causality: dysgeusia", "setting": "[1]; [3]", "value": 2, "unit": "patients"}, {"measurement": "TEAE regardless of causality: fatigue", "setting": "[1]; [3]", "value": 2, "unit": "patients"}, {"measurement": "TEAE regardless of causality: muscle spasms", "setting": "[1]; [3]", "value": 2, "unit": "patients"}, {"measurement": "TEAE regardless of causality: nausea", "setting": "[1]; [3]", "value": 2, "unit": "patients"}, {"measurement": "TEAE regardless of causality: neutropenia", "setting": "[1]; [3]", "value": 2, "unit": "patients"}, {"measurement": "TEAE regardless of causality: peripheral edema", "setting": "[1]; [3]", "value": 2, "unit": "patients"}, {"measurement": "TEAE regardless of causality: sinusitis", "setting": "[1]; [3]", "value": 2, "unit": "patients"}, {"measurement": "dose-limiting toxicities (DLTs)", "setting": "[1]; AB79 with LenDex or VRd", "value": "No DLTs"}, {"measurement": "drug-related serious AEs, AEs that resulted in any drug discontinuation, or on-study deaths", "setting": "[1]; AB79 with LenDex or VRd", "value": "no"}, {"measurement": "infusion-related reactions (IRRs)", "setting": "[2]; SC, dosed up to 600 mg", "value": "have not been observed"}, {"measurement": "patients with AEs that led to study discontinuation", "setting": "[2]; both reported as not related to AB79", "value": "Two"}, {"measurement": "injection site reactions", "setting": "[2]; monotherapy SC", "value": "< 0.25", "unit": "%"}, {"measurement": "share of AEs overall that were Grade 1 or 2", "setting": "[2]; monotherapy SC", "value": 55, "unit": "%"}, {"measurement": "systemic reactions", "setting": "[2]; monotherapy SC", "value": "no systemic reactions"}, {"measurement": "TEAE regardless of causality: abdominal distension", "setting": "[2]; [4]", "value": 12, "unit": "%"}, {"measurement": "TEAE regardless of causality: anemia", "setting": "[2]; [4]", "value": 15, "unit": "%"}, {"measurement": "TEAE regardless of causality: back pain", "setting": "[2]; [4]", "value": 12, "unit": "%"}, {"measurement": "TEAE regardless of causality: cough", "setting": "[2]; [4]", "value": 10, "unit": "%"}, {"measurement": "TEAE regardless of causality: diarrhea", "setting": "[2]; [4]", "value": 17, "unit": "%"}, {"measurement": "TEAE regardless of causality: fatigue", "setting": "[2]; [4]", "value": 27, "unit": "%"}, {"measurement": "TEAE regardless of causality: headache", "setting": "[2]; [4]", "value": 15, "unit": "%"}, {"measurement": "TEAE regardless of causality: hypertension", "setting": "[2]; [4]", "value": 12, "unit": "%"}, {"measurement": "TEAE regardless of causality: insomnia", "setting": "[2]; [4]", "value": 22, "unit": "%"}, {"measurement": "TEAE regardless of causality: nausea", "setting": "[2]; [4]", "value": 17, "unit": "%"}, {"measurement": "TEAE regardless of causality: neutropenia", "setting": "[2]; [4]", "value": 12, "unit": "%"}, {"measurement": "TEAE regardless of causality: pneumonia", "setting": "[2]; [4]", "value": 10, "unit": "%"}, {"measurement": "TEAE regardless of causality: upper respiratory infection", "setting": "[2]; [4]", "value": 27, "unit": "%"}, {"measurement": "dose-limiting toxicities (DLTs)", "setting": "[2]; monotherapy cohorts", "value": "no DLTs"}, {"measurement": "maximum tolerated dose (MTD)", "setting": "[2]; monotherapy cohorts", "value": "has not been identified"}, {"measurement": "drug-related SAEs (Diverticulitis)", "setting": "[2]; patient with past medical history of diverticulitis", "value": "One"}]}
